Patent US20240043527A1 (BioNTech SE, priority 2020, published 2024)

How the values were obtained:
[1] = system: primary human hepatocytes; experiment: Expression and assembly of RiboMab after lipofection of primary human hepatocytes (ELISA, Western Blot); type: cell-based; conditions: 48 hours post lipofection
Experimental: (Left) ELISA analyses of RiboMab01 concentrations 48 hours post transfection. (Right) Western Blot analysis of cell culture supernatant from indicated lipofections. Recombinant purified IMAB362 served as reference for Western Blot analysis. Analysis was performed under non-reducing conditions and with HRP-conjugated anti-human antibodies. A mixture of Fcγ-fragment specific and anti-kappa light chain specific antibodies was used for detection of full length IgG, free heavy (HC) and free light chains (LC). Supernatant of untransfected primary human hepatocytes served as mock control. […] RiboMab01 concentration determined via ELISA 48 hours post transfection are shown. Error bars are standard errors of the mean (n=3).
Assembly of full IgG after RNA transfection of hepatocytes.

[2] = system: CHO-K1 cells; experiment: Expression and assembly of RiboMab after lipofection of CHO-K1 cells (ELISA); type: cell-based, Chinese hamster; conditions: 48 hours post lipofection
[3] = system: CLDN-18.2+ NUG-C4 transfectants; experiment: In vitro ADCC assay (luciferase-based); type: cell-based, human; conditions: for ADCC, cellular cytotoxicity: control cells MDA-MB-231, human PBMCs, E:T 30:1
Experimental: RiboMab01-containing cell culture supernatant from CHO-K1 cells lipofected with RB_RMAB01 was subjected to (Panel A) ADCC and (Panel B) CDC assays. […] Human PBMCs of three different healthy donors were utilized as effector cells (E:T ratio 30:1). Target or control and effector cells were incubated for 48 hours with the indicated RiboMab01 and IMAB362 reference protein concentrations. Specific cell lysis as determined in a luciferase-based assay is shown. […] Target and control cells were incubated with human serum and RiboMab01 concentrations as indicated for 2 hours. CDC determined in a luciferase-based assay is shown. Error bars are standard errors of the mean (n=3).
Mode of action analysis: Antibody-dependent cellular cytotoxicity (ADCC) and complement-dependent cytotoxicity (CDC) in vitro. […] To simulate in vivo conditions, human PBMCs from three different healthy donors were used as effector cells in ADCC assays in an effector to target (E:T) ratio of 30:1 and human serum (e.g., commercially available human serum) was used as a source of complement in CDC assays.

[4] = system: MDA-MB-231 cells; experiment: Ex vivo ADCC assay with plasma of dosed mice, target-negative control cells; type: cell-based, human; conditions: mouse plasma
Experimental: Plasma of mice dosed with five repetitive injections of either 1 μg (˜0.04 mg/kg), 3 μg (˜0.10 mg/kg), 10 μg (˜0.40 mg/kg) and 30 μg (˜1.20 mg/kg) RB_RMAB01 or 80 μg (˜3.20 mg/kg) of IMAB362 was sampled 24 hours post 5th injection and directed to luciferase-based ex vivo ADCC assays. Plasma of untreated mice spiked with IMAB362 served as assay reference. […] (Panel A) RiboMab01 mediated ADCC of NUG-C4 cells after 48 hours incubation with 1% of plasma is shown. […] Error bars are standard errors of the mean (n=3).
Plasma of untreated mice spiked with IMAB362 served as assay reference.

[5] = Repetitive dose PK study in NHP (ELISA); type: in vivo, Cynomolgus monkey
Experimental: NHP received IV injections of 0.1, 0.4 or 1.6 mg/kg RB_RMAB01 at test days 1, 8 and […] was sampled 6, 24, 48, 72, 96 and 168 hours post 1st and 3rd dosing and 48, 72 and 168 hours post 2nd dosing as well as 264, 336 and 504 hours post 3rd dosing. RiboMab01 concentrations in plasma measured via ELISA are shown. Error bars are standard errors of the mean (n=3).
FIG. 14 is a graph showing dose-exposure correlation of RB_RMAB01 in cynomolgus monkey at tmax. Cynomolgus monkeys (n=3) received IV injections of 0.1, 0.4 or 1.6 mg/kg RB_RMAB01. Dose-dependent RiboMab01 concentrations (mean, n=3) in plasma measured via ELISA at Cmax are depicted. A green line indicates a dose that can be administered to a human subject and its corresponding anticipated serum concentration.
Treatment groups received three IV bolus injections of either 0.1 mg/kg, 0.4 mg/kg or 1.6 mg/kg at weekly intervals. As controls, saline or empty LNPs were administered likewise. Serum was sampled 6, 24, 48, 72, 96 and 168 hours post 1st and 3rd dosing and 48, 72 and 168 hours post 2nd dosing as well as 264, 336 and 504 hours post 3rd dosing.

In the case of “CLDN-18.2-targeting RiboMab: CLDN-18.2-targeting IgG antibody (IMAB362 delivered as ribonucleic acid) expressed from mRNAs encoding heavy and light chain”, the “expression and assembly of full IgG in cell supernatant” value (from here on “expression and assembly of full IgG”) [1] is reported as “Fully assembled”, the “expression and assembly of full IgG” value ([1]; listed as RiboMab01) is reported as “expressed” and the “expression and assembly of full IgG” value [2] is reported as “Fully assembled”. For the same substance, the “expression and assembly of full IgG” value ([2]; listed as RiboMab01) was “expressed”, the “ADCC, cellular cytotoxicity” value [3] was “target specific and dose-dependent cellular cytotoxicity comparable to the reference protein IMAB362” and the “ADCC, cellular cytotoxicity” value ([3]; listed as RiboMab01) was “high target specific cell cytotoxicity”. For the same substance, the “ADCC EC50” value ([3]; human PBMCs from three donors, E:T 30:1, 48 hours) was 0.01 to 0.127 µg/mL, the “unspecific lysis on target-negative cells” value [4] was “No unspecific lysis” and the “RiboMab serum concentration, highest determined” value ([5]; NHP No. 14, 1.6 mg/kg, 48 hours after the 3rd dosing) was 232 µg/mL. For the same substance, the “Cmax compared with IMAB362” value ([5]; between 48-72 hours post administration) was “notably lower Cmax than IMAB362”, the tmax ([5]; dose-exposure correlation in cynomolgus monkey, FIG. 14) was 48 h and the “peak serum concentration of RiboMab” value ([5]; highest dose 1.6 mg/kg, 48-72 hours post 3rd administration) was 231.7 µg/mL. The “time RiboMab detectable (termination of the study)” value ([5]; post 1st dosing) was 840 h and the “expression on weekly administration” value ([5]; three weekly IV doses) was “sustainable”.
